According to patent publication US20230131339A1, “EPI-X4 BASED PEPTIDES AND DERIVATIVES THEREOF” (Universitaet Ulm, priority 2020, published 2023):
Where a SMILES comes first, the peptide text is derived from it. [ ]: non-standard residue; d: D form. The star is where a group is joined. DOTA = O=C(O)CN1CCN(CC(=O)O)CCN(CC(=O)*)CCN(CC(=O)O)CC1

Assay: Small animal SPECT/CT and PET/CT imaging (total body distribution)
Assay type: in vivo, Balb/c mice
Settings: ^68Ga-labeled, tail vein, 1 h p.i.
Experimental: SPECT/CT: The total body distribution of [^177Lu]Lu-Pentixather was compared to [^177Lu]Lu-DOTA-K-JM #173 and [^177Lu]Lu-DOTA-K-JM #235. Healthy Balb/c mice were injected into the tail vein with 15-20 MBq ([…]) of ^177Lu-labeled complexes and SPECT/CT images was acquired 4 h post injection (p.i.). For acquiring the images, mice were euthanized by CO2 inhalation after 4 hours, measured in a suitable dose calibrator and imaged supine, head first, using a SPECT/CT system dedicated to imaging small animals (NanoSPECT/CTTM Bioscan Inc.). The images were reconstructed using proprietary HiSPECT iterative reconstruction and fused with CT images using proprietary InVivoScope (Bioscan) software.
PET/CT: PET/CT imaging was performed to determine and compare the total body distribution of [^68Ga]Ga-Pentixather with [^68Ga]Ga-DOTA-K-JM #173. Healthy Balb/c mice were injected into the tail vein with 5-6 MBq ([…]) of ^68Ga-labeled complexes and PET/CT images were acquired 1 h p.i. For acquiring the images, mice were euthanized by CO2 inhalation after 1 h, measured in a suitable dose calibrator and imaged supine, head first, using a PET/CT system dedicated to imaging small animals (Molecubes). The images were reconstructed using the Molecubes software and fused with CT images using Vivo Quant. […]

CC[C@@H](C)[C@@H](N)C(=O)N[C@@H](CC(C)C)C(=O)N[C@@H](CCCNC(=N)N)C(=O)N[C@@H](Cc1c[nH]c2ccccc12)C(=O)N[C@@H](CO)C(=O)N[C@@H](CCCNC(=N)N)C(=O)N[C@@H](CCCCN)C(=O)N[C@@H](CCCCNC(=O)CN1CCN(CC(=O)O)CCN(CC(=O)O)CCN(CC(=O)O)CC1)C(N)=O [[^68Ga]Ga-DOTA-K-JM#173] [metal not drawn] (H-[dI]LRWSRKK(DOTA)-NH2)
total body distribution, PET/CT: no specific uptake in any organ in vivo
